The results in this text go back to patent publication US20260234255A1 (Genmab, published 2026).

Assay [1] has as its target T1, human CD30 (human, UniProt P28908 19-595).
T1 construct: The same molecule is used for CD30 on HL/ALCL/NHL cell lines; also called huCD30; TNFRSF8
T1 sequence: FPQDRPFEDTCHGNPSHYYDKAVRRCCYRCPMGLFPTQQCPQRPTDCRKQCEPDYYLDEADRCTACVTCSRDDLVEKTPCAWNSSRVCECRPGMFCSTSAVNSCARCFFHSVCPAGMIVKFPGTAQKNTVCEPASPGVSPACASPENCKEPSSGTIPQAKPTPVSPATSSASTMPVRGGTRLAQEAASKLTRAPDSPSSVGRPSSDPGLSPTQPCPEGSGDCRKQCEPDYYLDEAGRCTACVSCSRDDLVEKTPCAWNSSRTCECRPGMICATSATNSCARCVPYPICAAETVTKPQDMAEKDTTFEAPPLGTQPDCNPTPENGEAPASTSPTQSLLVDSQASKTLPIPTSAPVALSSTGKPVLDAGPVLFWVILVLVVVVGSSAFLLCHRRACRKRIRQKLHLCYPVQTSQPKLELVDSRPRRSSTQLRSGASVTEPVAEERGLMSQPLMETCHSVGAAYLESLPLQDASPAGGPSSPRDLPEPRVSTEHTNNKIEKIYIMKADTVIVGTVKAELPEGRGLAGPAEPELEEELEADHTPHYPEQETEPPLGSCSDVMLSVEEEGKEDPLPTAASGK
Description: flow cytometry, DEL cells, experiment N = 1. Background: A flow cytometer gives signals particle by particle.

The target of assay [2] is T1, human CD30. Put plainly: flow cytometry, KI-JK cells, experiment N = 1.
In assay [3] the target is T1, human CD30. Put plainly: flow cytometry, KI-JK cells, experiment N = 2.
For assay [4], the target named is T1, human CD30. Put plainly: cell-based or functional assay.
Assay [5] deals with T1, human CD30. Description: flow cytometry, L-428 cells (HL), range of 2 tests. Here is the method: (§1) Cells (3×10⁴ cells/well) were incubated in polystyrene 96-well round-bottom plates (Greiner bio-one, cat. no. 650180) with serial dilutions of antibodies (range 0.0046 to 10 μg/mL in 3-fold dilution steps) in 50 μL staining buffer at 4° C. for 30 min. After washing twice in staining buffer, cells were incubated with 50 μL secondary antibody at 4° C. for 30 min. […] Next, cells were washed twice in staining buffer, resuspended in 100 μL staining buffer supplemented with TO-PRO-3 iodide (Thermo Fisher Scientific; cat. no. T3605; 1:8000 dilution) and analyzed on a FACSCelesta flow cytometer (BD Biosciences, USA). Live cells were gated based on FSC/SSC and absence of TOPRO-3 staining. Binding curves were analyzed by non-linear regression of log-transformed data (sigmoidal dose-response with variable slope, four parameters) using GraphPad Prism V7.02 software (GraphPad Software, San Diego, CA, USA).

Assay [6] concerns the target T1, human CD30. Put plainly: flow cytometry, DL-40 cells (ALCL), range of 3 tests. How it is done: as §1
The target in assay [7] is T1, human CD30. Description: flow cytometry, DL-40 cells (ALCL), average of 3 tests. Here is the method: as §1
Assay [8] deals with T1, human CD30. Put plainly: flow cytometry, SR-786 cells (ALCL), average of 3 tests. Here is the method:
as §1

Assay [9] has as its target T1, human CD30. Description: flow cytometry, KARPAS-299 cells (ALCL), range of 2 tests. How it is done:
as §1

The target of a further assay is T2, complement protein C1q (human, UniProt P02745 23-245; P02746 28-253; P02747 29-245).
T2 construct: 20% human serum was used as the source of C1q
T2 sequence (P02745 23-245 limits assumed, chain 1 of 3): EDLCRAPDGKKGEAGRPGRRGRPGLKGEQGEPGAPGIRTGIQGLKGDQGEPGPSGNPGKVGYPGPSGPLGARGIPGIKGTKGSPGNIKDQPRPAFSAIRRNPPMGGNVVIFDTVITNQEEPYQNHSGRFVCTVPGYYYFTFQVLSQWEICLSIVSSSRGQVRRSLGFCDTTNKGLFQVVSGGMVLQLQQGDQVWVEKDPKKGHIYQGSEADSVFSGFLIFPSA
T2 sequence (P02746 28-253 limits assumed, chain 2 of 3): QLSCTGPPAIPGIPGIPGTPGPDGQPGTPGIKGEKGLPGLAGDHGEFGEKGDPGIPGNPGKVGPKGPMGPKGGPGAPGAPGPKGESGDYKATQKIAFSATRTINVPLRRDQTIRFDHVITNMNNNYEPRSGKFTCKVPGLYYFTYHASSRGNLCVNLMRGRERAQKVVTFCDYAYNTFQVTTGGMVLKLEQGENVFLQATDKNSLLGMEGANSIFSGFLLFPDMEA
T2 sequence (P02747 29-245 limits assumed, chain 3 of 3): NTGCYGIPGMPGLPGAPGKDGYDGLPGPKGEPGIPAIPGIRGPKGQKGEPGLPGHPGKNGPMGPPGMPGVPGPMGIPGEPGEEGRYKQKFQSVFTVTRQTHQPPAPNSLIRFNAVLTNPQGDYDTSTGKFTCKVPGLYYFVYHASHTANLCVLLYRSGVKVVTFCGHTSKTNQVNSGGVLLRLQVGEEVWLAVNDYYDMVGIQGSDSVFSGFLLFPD
Put plainly: flow cytometry with FITC anti-C1q; antibody-opsonized activated human CD8+ T cells, 20% normal human serum as the source of C1q. Here is the method: Activated CD8⁺ T cells were seeded in a round-bottom 96-well plate (30,000 cells/well), pelleted, and resuspended in 30 μL assay medium (RPMI-1640 with 25 mM HEPES and L-glutamine, supplemented with 0.1% [w/v] bovine serum albumin fraction V (BSA; Roche, cat. no. 10735086001) and penicillin/streptomycin).
Human serum (20 μL/well; Sanquin, lot 20L15-02), as a source of C1q, was added to a final concentration of 20%. Cells were incubated on ice for 45 min, followed by two washes with cold GMB FACS buffer and incubation with 50 μL fluorescein isothiocyanate (FITC)-conjugated rabbit anti-human C1q (final concentration of 20 μg/mL (DAKO, cat no. F0254); diluted 1:75 in GMB FACS buffer) in the presence or absence of allophycocyanin-conjugated mouse-anti-CD8 (BD Biosciences, cat. no. 555369; diluted 1:50 in GMB FACS buffer) in the dark at 4° C. for 30 min. […] C1q binding to viable cells (as identified by DAPI exclusion) was analyzed by flow cytometry on an iQue3 Screener (Intellicyt Corporation). Data were analyzed using iQue software (Intellicyt Corporation, ForeCyt® Enterprise Client Edition 6.2 [R3], Version 6.2.652).

Changes are numbered by the printed parent chain.

B1: bsG1-huCD3-FEALxCD30-MDX060-FEAR (bispecific antibody, human IgG1, kappa, lambda)
heavy 1: not shown
light 1: not shown
heavy 2: QVQLQQWGAGLLKPSETLSLTCAVYGGSFSAYYWSWIRQPPGKGLEWIGDINHGGGTNYNPSLKSRVTISVDTSKNQFSLKLNSVTAADTAVYYCASLTAYWGQGSLVTVSSASTKGPSVFPLAPSSKSTSGGTAALGCLVKDYFPEPVTVSWNSGALTSGVHTFPAVLQSSGLYSLSSVVTVPSSSLGTQTYICNVNHKPSNTKVDKRVEPKSCDKTHTCPPCPAPEFEGGPSVFLFPPKPKDTLMISRTPEVTCVVVAVSHEDPEVKFNWYVDGVEVHNAKTKPREEQYNSTYRVVSVLTVLHQDWLNGKEYKCKVSNKALPAPIEKTISKAKGQPREPQVYTLPPSREEMTKNQVSLTCLVKGFYPSDIAVEWESNGQPENNYKTTPPVLDSDGSFFLYSRLTVDKSRWQQGNVFSCSVMHEALHNHYTQKSLSLSPG
light 2: DIQMTQSPTSLSASVGDRVTITCRASQGISSWLTWYQQKPEKAPKSLIYAASSLQSGVPSRFSGSGSGTDFTLTISSLQPEDFATYYCQQYDSYPITFGQGTRLEIKRTVAAPSVFIFPPSDEQLKSGTASVVCLLNNFYPREAKVQWKVDNALQSGNSQESVTEQDSKDSTYSLSSTLTLSKADYEKHKVYACEVTHQGLSSPVTKSFNRGEC
notes: also called bsG1-huCD3xCD30-MDX060
What is called EC50 is the midpoint of the concentration-response curve. Low values mean greater potency, high ones weaker potency. Consider B1, for which the EC50 in the assay with human CD30 [1] was 0.302 µg/mL; in the assay with human CD30 [2], 0.16 µg/mL; with human CD30 [3], 0.0735 µg/mL.

B2: bsG1-huCD3-FEALxCD30-MDX060-FERR (bispecific antibody, human IgG1, kappa, lambda)
heavy 1: not shown
light 1: not shown
heavy 2: B1 heavy 2 with G231R, A260D
light 2: B1 light 2
notes: Bispecific IgG1 made by controlled Fab-arm exchange; also called bsIgG1-huCD3-FEALxCD30-MDX060-FERR; bsG1-huCD3×CD30-MDX060
For the molecule B2, the “T-cell mediated cytotoxicity of KI-JK cells, average IC50” value with human CD30 [4] is 0.0015 µg/mL. The “T-cell mediated cytotoxicity of L-428 cells, average IC50” value with human CD30 [4] was 0.002 µg/mL. Moreover, the EC50 is 0.174 µg/mL in the assay with human CD30 [5]; 0.17 to 0.347 µg/mL in the assay with human CD30 [6]; 0.236 µg/mL with human CD30 [7]; 0.328 µg/mL in the assay with human CD30 [8]; 0.134 to 0.269 µg/mL with human CD30 [9]. In the assay with complement protein C1q, the binding result is recorded as “no binding (tested: about 30 µg/mL)”.
